Source: the supplement of paper PMC5998384

Experiments:
HeLa Kyoto [1] = experiment: solubility in G1/S (NP-40 vs SDS abundance) (log2 ratio); higher = more soluble; conditions: cell cycle stage: G1/S
HeLa Kyoto [2] = experiment: solubility change mitosis vs G1/S (difference of NP-40 vs SDS log2 ratios) (log2 ratio difference); higher = more soluble in mitosis
HeLa Kyoto [3] = experiment: melting temperature (median over replicates), in situ; higher = more thermally stable
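For melting temperature (median over replicates), in situ in this document: HeLa Kyoto cells synchronized by double thymidine or nocodazole block, proteins quantified by TMT10plex mass spectrometry, three independent biological replicates.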
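For solubility change mitosis vs G1/S (difference of NP-40 vs SDS log2 ratios) in this document: synchronized HeLa Kyoto cells (double thymidine block for G1/S, nocodazole release for mitosis), protein amounts in NP-40 versus SDS lysates quantified by mass spectrometry, three biological replicates.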
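For solubility in G1/S (NP-40 vs SDS abundance) in this document: HeLa Kyoto cells arrested at G1/S by double thymidine block, proteins quantified by TMT10plex mass spectrometry in mild NP-40 versus SDS extracts, three biological replicates.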

Chain of STAT2 (chain, as listed by the source): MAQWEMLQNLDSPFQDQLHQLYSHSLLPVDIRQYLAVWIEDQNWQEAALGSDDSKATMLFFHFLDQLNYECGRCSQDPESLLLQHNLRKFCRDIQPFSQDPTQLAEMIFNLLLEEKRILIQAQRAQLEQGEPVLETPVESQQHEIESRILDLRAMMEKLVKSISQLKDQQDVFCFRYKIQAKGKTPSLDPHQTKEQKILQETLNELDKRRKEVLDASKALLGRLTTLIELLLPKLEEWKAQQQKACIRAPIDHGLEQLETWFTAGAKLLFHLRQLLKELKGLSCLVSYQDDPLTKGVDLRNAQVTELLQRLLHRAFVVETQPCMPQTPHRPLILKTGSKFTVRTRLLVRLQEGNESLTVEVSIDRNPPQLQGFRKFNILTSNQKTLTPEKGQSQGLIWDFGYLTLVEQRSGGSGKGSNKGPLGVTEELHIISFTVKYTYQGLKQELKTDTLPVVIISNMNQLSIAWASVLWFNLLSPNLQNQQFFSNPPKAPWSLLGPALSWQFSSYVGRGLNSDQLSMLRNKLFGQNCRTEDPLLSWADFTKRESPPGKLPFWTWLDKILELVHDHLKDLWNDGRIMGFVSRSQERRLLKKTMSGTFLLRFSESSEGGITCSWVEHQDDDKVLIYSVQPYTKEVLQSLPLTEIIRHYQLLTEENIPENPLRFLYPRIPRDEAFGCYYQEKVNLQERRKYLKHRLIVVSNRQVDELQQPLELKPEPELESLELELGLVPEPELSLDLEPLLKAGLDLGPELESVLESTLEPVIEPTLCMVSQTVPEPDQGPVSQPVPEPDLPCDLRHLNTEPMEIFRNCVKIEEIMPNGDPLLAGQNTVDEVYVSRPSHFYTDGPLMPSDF

| Substance | solubility in G1/S (log2) (HeLa Kyoto [1]) | solubility change mitosis (log2) (HeLa Kyoto [2]) | melting temperature (HeLa Kyoto [3]; cell cycle stage: G1/S) | melting temperature (HeLa Kyoto [3]; cell cycle stage: mitosis) |
| --- | --- | --- | --- | --- |
| MAELGLNEHHQNEVINYMRFARSKRGLRLKTVDSCFQDLKESRLVEDTFTIDEVSEVLNGLQAVVHSEVESELINTAYTNVLLLRQLFAQAEKWYLKLQTDISELENRELLEQVAEFEKAEITSSNKKPILDVTKPKLAPLNEGGTAELLNKEILRLQEENEKLKSRLKTIEIQATNALDEKSKLEKALQDLQLDQGNQKDFIKAQDLSNLENTVAALKSEFQKTLNDKTENQKSLEENLATAKHDLLRVQEQLHMAEKELEKKFQQTAAYRNMKEILTKKNDQIKDLRKRLAQYEPED [LZTFL1] | 0.713 | 0.0593 | 53.2 °C | 52.7 °C |
| STAT2 | -0.0132 | -0.0626 | 49.1 °C | 50.9 °C |
| MAAQLLEEKLTCAICLGLYQDPVTLPCGHNFCGACIRDWWDRCGKACPECREPFPDGAELRRNVALSGVLEVVRAGPARDPGPDPGPGPDPAARCPRHGRPLELFCRTEGRCVCSVCTVRECRLHERALLDAERLKREAQLRASLEVTQQQATQAEGQLLELRKQSSQIQNSACILASWVSGKFSSLLQALEIQHTTALRSIEVAKTQALAQARDEEQRLRVHLEAVARHGCRIRELLEQVDEQTFLQESQLLQPPGPLGPLTPLQWDEDQQLGDLKQLLSRLCGLLLEEGSHPGAPAKPVDLAPVEAPGPLAPVPSTVCPLRRKLWQNYRNLTFDPVSANRHFYLSRQDQQVKHCRQSRGPGGPGSFELWQVQCAQSFQAGHHYWEVRASDHSVTLGVSYPQLPRCRLGPHTDNIGRGPCSWGLCVQEDSLQAWHNGEAQRLPGVSGRLLGMDLDLASGCLTFYSLEPQTQPLYTFHALFNQPLTPVFWLLEGRTLTLCHQPGAVFPLGPQEEVLS [TRIM65] | -0.0459 | -0.0816 | 49.2 °C | 49.3 °C |
| MWHSVGLTLLVFVATLLIVLLLMVCGWYFVWHLFLSKFKFLRELVGDTGSQEGDHEPSGSETEEDTSSSPHRIRSARQRRAPADEGHRPLT [SMIM13] | -0.0724 | -0.138 | 55.5 °C |  |
| MPLRKMKIPFLLLFFLWEAESHAASRPNIILVMADDLGIGDPGCYGNKTIRTPNIDRLASGGVKLTQHLAASPLCTPSRAAFMTGRYPVRSGMASWSRTGVFLFTASSGGLPTDEITFAKLLKDQGYSTALIGKWHLGMSCHSKTDFCHHPLHHGFNYFYGISLTNLRDCKPGEGSVFTTGFKRLVFLPLQIVGVTLLTLAALNCLGLLHVPLGVFFSLLFLAALILTLFLGFLHYFRPLNCFMMRNYEIIQQPMSYDNLTQRLTVEAAQFIQRNTETPFLLVLSYLHVHTALFSSKDFAGKSQHGVYGDAVEEMDWSVGQILNLLDELRLANDTLIYFTSDQGAHVEEVSSKGEIHGGSNGIYKGGKANNWEGGIRVPGILRWPRVIQAGQKIDEPTSNMDIFPTVAKLAGAPLPEDRIIDGRDLMPLLEGKSQRSDHEFLFHYCNAYLNAVRWHPQNSTSIWKAFFFTPNFNPVGSNGCFATHVCFCFGSYVTHHDPPLLFDISKDPRERNPLTPASEPRFYEILKVMQEAADRHTQTLPEVPDQFSWNNFLWKPWLQLCCPSTGLSCQCDREKQDKRLSR | 0.0818 | -0.0688 | 55.8 °C | 55.3 °C |
| MAVAIAAARVWRLNRGLSQAALLLLRQPGARGLARSHPPRQQQQFSSLDDKPQFPGASAEFIDKLEFIQPNVISGIPIYRVMDRQGQIINPSEDPHLPKEKVLKLYKSMTLLNTMDRILYESQRQGRISFYMTNYGEEGTHVGSAAALDNTDLVFGQYREAGVLMYRDYPLELFMAQCYGNISDLGKGRQMPVHYGCKERHFVTISSPLATQIPQAVGAAYAAKRANANRVVICYFGEGAASEGDAHAGFNFAATLECPIIFFCRNNGYAISTPTSEQYRGDGIAARGPGYGIMSIRVDGNDVFAVYNATKEARRRAVAENQPFLIEAMTYRIGHHSTSDDSSAYRSVDEVNYWDKQDHPISRLRHYLLSQGWWDEEQEKAWRKQSRRKVMEAFEQAERKPKPNPNLLFSDVYQEMPAQLRKQQESLARHLQTYGEHYPLDHFDK [BCKDHA] | 0.0962 | -0.0598 | 52.2 °C | 52.2 °C |
| MGLCKCPKRKVTNLFCFEHRVNVCEHCLVANHAKCIVQSYLQWLQDSDYNPNCRLCNIPLASRETTRLVCYDLFHWACLNERAAQLPRNTAPAGYQCPSCNGPIFPPTNLAGPVASALREKLATVNWARAGLGLPLIDEVVSPEPEPLNTSDFSDWSSFNASSTPGPEEVDSASAAPAFYSQAPRPPASPGRPEQHTVIHMGNPEPLTHAPRKVYDTRDDDRTPGLHGDCDDDKYRRRPALGWLARLLRSRAGSRKRPLTLLQRAGLLLLLGLLGFLALLALMSRLGRAAADSDPNLDPLMNPHIRVGPS [ZFPL1] | 0.256 | -0.0676 | 57.4 °C |  |
| MASYYEILDVPRSASADDIKKAYRRKALQWHPDKNPDNKEFAEKKFKEVAEAYEVLSDKHKREIYDRYGREGLTGTGTGPSRAEAGSGGPGFTFTFRSPEEVFREFFGSGDPFAELFDDLGPFSELQNRGSRHSGPFFTFSSSFPGHSDFSSSSFSFSPGAGAFRSVSTSTTFVQGRRITTRRIMENGQERVEVEEDGQLKSVTINGVPDDLALGLELSRREQQPSVTSRSGGTQVQQTPASCPLDSDLSEDEDLQLAMAYSLSEMEAAGKKPAGGREAQHRRQGRPKAQHQDPGLGGTQEGARGEATKRSPSPEEKASRCLIL [DNAJB2] | 0.0895 | 0.274 | 50.2 °C | 50.5 °C |
| MHRGVGPAFRVVRKMAASGAEPQVLVQYLVLRKDLSQAPFSWPAGALVAQACHAATAALHTHRDHPHTAAYLQELGRMRKVVLEAPDETTLKELAETLQQKNIDHMLWLEQPENIATCIALRPYPKEEVGQYLKKFRLFK [PTRHD1] | -0.278 | 0.625 | 55.6 °C | 52.6 °C |
| MASKLLRAVILGPPGSGKGTVCQRIAQNFGLQHLSSGHFLRENIKASTEVGEMAKQYIEKSLLVPDHVITRLMMSELENRRGQHWLLDGFPRTLGQAEALDKICEVDLVISLNIPFETLKDRLSRRWIHPPSGRVYNLDFNPPHVHGIDDVTGEPLVQQEDDKPEAVAARLRQYKDVAKPVIELYKSRGVLHQFSGTETNKIWPYVYTLFSNKITPIQSKEAY [AK4] | 0.384 | 0.0928 |  | 51.3 °C |
| MTGKSVKDVDRYQAVLANLLLEEDNKFCADCQSKGPRWASWNIGVFICIRCAGIHRNLGVHISRVKSVNLDQWTQEQIQCMQEMGNGKANRLYEAYLPETFRRPQIDPAVEGFIRDKYEKKKYMDRSLDINAFRKEKDDKWKRGSEPVPEKKLEPVVFEKVKMPQKKEDPQLPRKSSPKSTAPVMDLLGLDAPVACSIANSKTSNTLEKDLDLLASVPSPSSSGSRKVVGSMPTAGSAGSVPENLNLFPEPGSKSEEIGKKQLSKDSILSLYGSQTPQMPTQAMFMAPAQMAYPTAYPSFPGVTPPNSIMGSMMPPPVGMVAQPGASGMVAPMAMPAGYMGGMQASMMGVPNGMMTTQQAGYMAGMAAMPQTVYGVQPAQQLQWNLTQMTQQMAGMNFYGANGMMNYGQSMSGGNGQAANQTLSPQMWK [SMAP2] | 0.111 | -0.0647 | 48.3 °C | 49.6 °C |
| MAQEEEDVRDYNLTEEQKAIKAKYPPVNRKYEYLDHTADVQLHAWGDTLEEAFEQCAMAMFGYMTDTGTVEPLQTVEVETQGDDLQSLLFHFLDEWLYKFSADEFFIPREVKVLSIDQRNFKLRSIGWGEEFSLSKHPQGTEVKAITYSAMQVYNEENPEVFVIIDI [ZBTB8OS] | 0.153 | 0.0908 | 52.6 °C | 53.1 °C |
| MTSTGQDSTTTRQRRSRQNPQSPPQDSSVTSKRNIKKGAVPRSIPNLAEVKKKGKMKKLGQAMEEDLIVGLQGMDLNLEAEALAGTGLVLDEQLNEFHCLWDDSFPEGPERLHAIKEQLIQEGLLDRCVSFQARFAEKEELMLVHSLEYIDLMETTQYMNEGELRVLADTYDSVYLHPNSYSCACLASGSVLRLVDAVLGAEIRNGMAIIRPPGHHAQHSLMDGYCMFNHVAVAARYAQQKHRIRRVLIVDWDVHHGQGTQFTFDQDPSVLYFSIHRYEQGRFWPHLKASNWSTTGFGQGQGYTINVPWNQVGMRDADYIAAFLHVLLPVALEFQPQLVLVAAGFDALQGDPKGEMAATPAGFAQLTHLLMGLAGGKLILSLEGGYNLRALAEGVSASLHTLLGDPCPMLESPGAPCRSAQASVSCALEALEPFWEVLVRSTETVERDNMEEDNVEESEEEGPWEPPVLPILTWPVLQSRTGLVYDQNMMNHCNLWDSHHPEVPQRILRIMCRLEELGLAGRCLTLTPRPATEAELLTCHSAEYVGHLRATEKMKTRELHRESSNFDSIYICPSTFACAQLATGAACRLVEAVLSGEVLNGAAVVRPPGHHAEQDAACGFCFFNSVAVAARHAQTISGHALRILIVDWDVHHGNGTQHMFEDDPSVLYVSLHRYDHGTFFPMGDEGASSQIGRAAGTGFTVNVAWNGPRMGDADYLAAWHRLVLPIAYEFNPELVLVSAGFDAARGDPLGGCQVSPEGYAHLTHLLMGLASGRIILILEGGYNLTSISESMAACTRSLLGDPPPLLTLPRPPLSGALASITETIQVHRRYWRSLRVMKVEDREGPSSSKLVTKKAPQPAKPRLAERMTTREKKVLEAGMGKVTSASFGEESTPGQTNSETAVVALTQDQPSEAATGGATLAQTISEAAIGGAMLGQTTSEEAVGGATPDQTTSEETVGGAILDQTTSEDAVGGATLGQTTSEEAVGGATLAQTTSEAAMEGATLDQTTSEEAPGGTELIQTPLASSTDHQTPPTSPVQGTTPQISPSTLIGSLRTLELGSESQGASESQAPGEENLLGEAAGGQDMADSMLMQGSRGLTDQAIFYAVTPLPWCPHLVAVCPIPAAGLDVTQPCGDCGTIQENWVCLSCYQVYCGRYINGHMLQHHGNSGHPLVLSYIDLSAWCYYCQAYVHHQALLDVKNIAHQNKFGEDMPHPH [HDAC6] | -0.0107 | -0.0591 | 50.5 °C | 52 °C |
| MAAHLSYGRVNLNVLREAVRRELREFLDKCAGSKAIVWDEYLTGPFGLIAQYSLLKEHEVEKMFTLKGNRLPAADVKNIIFFVRPRLELMDIIAENVLSEDRRGPTRDFHILFVPRRSLLCEQRLKDLGVLGSFIHREEYSLDLIPFDGDLLSMESEGAFKECYLEGDQTSLYHAAKGLMTLQALYGTIPQIFGKGECARQVANMMIRMKREFTGSQNSIFPVFDNLLLLDRNVDLLTPLATQLTYEGLIDEIYGIQNSYVKLPPEKFAPKKQGDGGKDLPTEAKKLQLNSAEELYAEIRDKNFNAVGSVLSKKAKIISAAFEERHNAKTVGEIKQFVSQLPHMQAARGSLANHTSIAELIKDVTTSEDFFDKLTVEQEFMSGIDTDKVNNYIEDCIAQKHSLIKVLRLVCLQSVCNSGLKQKVLDYYKREILQTYGYEHILTLHNLEKAGLLKPQTGGRNNYPTIRKTLRLWMDDVNEQNPTDISYVYSGYAPLSVRLAQLLSRPGWRSIEEVLRILPGPHFEERQPLPTGLQKKRQPGENRVTLIFFLGGVTFAEIAALRFLSQLEDGGTEYVIATTKLMNGTSWIEALMEKPF [VPS33A] | -0.0025 | -0.165 | 49.4 °C | 49.9 °C |
